Test results as given in patent US20100015126A1, “Methods of Binding of Cross-Beta Structures By Chaperones” (priority 2006, published 2010).

Columns and labels:
BiP-Sepharose [1] = target: T1, BiP-Sepharose (Homo sapiens, UniProt P11021); experiment: Experiment 2: BiP-Sepharose extraction from six synovial fluid samples of RA patients and mass spectrometry; assay type: binding; conditions: BiP-Sepharose eluate, synovial fluid of RA patient
T1 construct: The human BiP gene except the signal peptide encoding region was obtained from Geneart (Germany); linker […]; made in house; host or cells: HEK 293E cells, transient transfection, PABC674 vector; secreted into the medium
Experimental: (§1) Six samples were incubated with the BiP-Sepharose, IgIV-Sepharose and the control-Sepharose: Normal pooled plasma, plasma of a patient I or of a patient II, with AL amyloidosis, serum of a patient III with RA (Rheumatoid Factor (RF) titer 682), control serum and synovial fluid of a patient IV with RA (RF titer 23). All samples were diluted 20× in HBS and applied to 200 μl beads in two volumes of 500 μl. One volume was incubated for 4 h at RT and supernatant was discarded after centrifugation (2 minutes at 1400 rpm). Subsequently, the second volume was applied to the same matrix and incubated overnight on a roller device at 4° C. […] To collect the eluates, the matrices were centrifuged and the two eluates were pooled for each sample.
(§2) Protein digests were desalted as described (Rappsilber et al., 2003), vacuum dried and dissolved in 2.5% formic acid.
(§3) For analysis of peptide mixtures, an Agilent 1100 HPLC system (Agilent Technologies) connected to a Thermo Finnigan LTQ-MS (Thermo Electron, Bremen, Germany) was used. Protein digests were injected on a trap column (Reprosil C18 RP (Dr Maisch, Germany), 20 mm×100 μm I.D.) at 5 μl/minute. Subsequently, the peptides were transferred with a split-reduced flow rate of 100 nL/minute solvent A (0.1 M acetic acid) on the analytical column (Reprosil C18 RP, 20 cm×50 μm I.D.). […] The column effluent was directly introduced into the ESI source of the mass spectrometer via a butt-connected nano-ESI emitter (New Objectives, Woburn, Mass.). The mass spectrometer was operated in the positive ion mode and parent ions were selected for fragmentation in data-dependent mode.
(§4) After mass spectrometric measurements, peak lists were generated using BioWorks software (Thermo Electron, Bremen, Germany). Protein identification was performed using Mascot software (www.matrixscience.com) by searching the IPIhuman database (version 3.24, downloaded from ftp://ftp.ebi.ac.uk/pub/databases/IPI/current) using the following settings: fully tryptic peptides, peptide tolerance 0.8 Da, MS/MS tolerance 0.9 Da, 1 missed cleavage allowed, carbamidomethyl (Cys) and oxidation (Met) as fixed and variable modification, respectively. The Scaffold software package (www.proteomesoftware.com) was used to parse the data and to filter peptides at a confidence level of 95%, allowing only protein identification with at least 2 peptides identified.
Those samples are listed below: • 1. […] One difference when compared to the protocol described above is that now with the twelve samples, elution buffer comprised 1 M NaCl. Again, a misfolded protein or a protein binding to misfolded protein is identified uniquely in the synovial fluid when no or a relatively very low number of fragments are detected in eluates of control-Sepharose.

BiP-Sepharose [2] = target: T1, BiP-Sepharose; experiment: BiP-Sepharose extraction of proteins from patient plasma, serum, synovial fluid and mass-spectrometric identification; assay type: binding; conditions: compared to AL amyloidosis patient II
Experimental: BiP was coated on CNBr-Sepharose (GE-Healthcare, Amersham Biosciences). Immobilization of BiP was performed essentially as described elsewhere in this application for NHS-Sepharose. CNBr-matrix was dissolved at 200 mg/ml in 1 mM HCl and treated the same as the NHS-matrix, except for an additional 5 minutes activation step in 1 mM HCl on a roller device before washing in this buffer. BiP was diluted in immobilization buffer (50 mM NaCl and 40 mM NaHCO3) to a concentration of 820 μg/ml. A total volume of 2 ml BiP solution (1640 μg BiP) was incubated with 360 mg beads. Negative control matrix was exposed to immobilization buffer, only. After overnight immobilization matrix was blocked with Tris and washed.
as §1, §2, §3, §4

T1 sequence (P11021 19-654): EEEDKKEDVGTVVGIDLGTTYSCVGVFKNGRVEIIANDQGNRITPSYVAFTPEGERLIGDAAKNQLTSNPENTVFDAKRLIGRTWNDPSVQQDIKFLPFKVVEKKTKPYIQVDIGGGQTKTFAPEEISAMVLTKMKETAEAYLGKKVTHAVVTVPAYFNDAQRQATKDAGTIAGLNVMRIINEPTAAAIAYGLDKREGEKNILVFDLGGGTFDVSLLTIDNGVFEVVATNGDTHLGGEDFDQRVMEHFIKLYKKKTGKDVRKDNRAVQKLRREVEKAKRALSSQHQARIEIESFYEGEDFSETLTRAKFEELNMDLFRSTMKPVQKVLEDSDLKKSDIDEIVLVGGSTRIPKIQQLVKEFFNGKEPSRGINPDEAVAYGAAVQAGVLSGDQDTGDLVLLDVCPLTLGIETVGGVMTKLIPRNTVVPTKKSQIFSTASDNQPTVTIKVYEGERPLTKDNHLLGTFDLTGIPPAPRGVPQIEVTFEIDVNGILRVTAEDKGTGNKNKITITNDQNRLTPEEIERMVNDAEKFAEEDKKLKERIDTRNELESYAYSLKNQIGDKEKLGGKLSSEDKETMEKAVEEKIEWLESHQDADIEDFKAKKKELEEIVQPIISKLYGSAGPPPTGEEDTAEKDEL

Molecule	# of unique peptides (BiP-Sepharose [1]; Sample 1B)	# of unique peptides (BiP-Sepharose [1]; Sample 3B)	# of unique peptides (BiP-Sepharose [1]; Sample 5B)	# of unique peptides (BiP-Sepharose [1]; Sample 2B)	Specific binding to BiP-Sepharose from normal pooled plasma (BiP-Sepharose [2])
IGHM protein, immunoglobulin heavy constant gamma 2 (protein) ASTKGPSVFPLAPCSRSTSESTAALGCLVKDYFPEPVTVSWNSGALTSGVHTFPAVLQSSGLYSLSSVVTVPSSNFGTQTYTCNVDHKPSNTKVDKTVERKCCVECPPCPAPPVAGPSVFLFPPKPKDTLMISRTPEVTCVVVDVSHEDPEVQFNWYVDGVEVHNAKTKPREEQFNSTFRVVSVLTVVHQDWLNGKEYKCKVSNKGLPAPIEKTISKTKGQPREPQVYTLPPSREEMTKNQVSLTCLVKGFYPSDISVEWESNGQPENNYKTTPPMLDSDGSFFLYSKLTVDKSRWQQGNVFSCSVMHEALHNHYTQKSLSLSPGK	1			1	
IGHM protein, immunoglobulin heavy chain mu (heavy chain disease protein) (protein) GSASAPTLFPLVSCENSPSDTSSVAVGCLAQDFLPDSITFSWKYKNNSDISSTRGFPSVLRGGKYAATSQVLLPSKDVMQGTDEHVVCKVQHPNGNKEKNVPLPVIAELPPKVSVFVPPRDGFFGNPRKSKLICQATGFSPRQIQVSWLREGKQVGSGVTTDQVQAEAKESGPTTYKVTSTLTIKESDWLGQSMFTCRVDHRGLTFQQNASSMCVPDQDTAIRVFAIPPSFASIFLTKSTKLTCLVTDLTTYDSVTISWTRQNGEAVKTHTNISESHPNATFSAVGEASICEDDWNSGERFTCTVTHTDLPSPLKQTISRPKGVALHRPDVYLLPPAREQLNLRESATITCLVTGFSPADVFVQWMQRGQPLSPEKYVTSAPMPEPQAPGRYFAHSILTVSEEEWNTGETYTCVVAHEALPNRVTERTVDKSTGKPTLYNVSLVMSDTAGTCY	3	1			
Galectin-3-binding protein precursor (protein) VNDGDMRLADGGATNQGRVEIFYRGQWGTVCDNLWDLTDASVVCRALGFENATQALGRAAFGQGSGPIMLDEVQCTGTEASLADCKSLGWLKSNCRHERDAGVVCTNETRSTHTLDLSRELSEALGQIFDSQRGCDLSISVNVQGEDALGFCGHTVILTANLEAQALWKEPGSNVTMSVDAECVPMVRDLLRYFYSRRIDITLSSVKCFHKLASAYGARQLQGYCASLFAILLPQDPSFQMPLDLYAYAVATGDALLEKLCLQFLAWNFEALTQAEAWPSVPTDLLQLLLPRSDLAVPSELALLKAVDTWSWGERASHEEVEGLVEKIRFPMMLPEELFELQFNLSLYWSHEALFQKKTLQALEFHTVPFQLLARYKGLNLTEDTYKPRIYTSPTWSAFVTDSSWSARKSQLVYQSRRGPLVKYSSDYFQAPSDYRYYPYQSFQTPQHPSFLFQDKRVSWSLVYLPTIQSCWNYGFSCSSDELPVLGLTKSGGSDRTIAYENKALMLCEGLFVADVTDFEGWKAAIPSALDTNSSKSTSSFPCPAGHFNGFRTVIRPFYLTNSSGVD	1	1			
complement C4a (protein, UniProt P0C0L4 680-756, looked up, C4a anaphylatoxin) C4a anaphylatoxin: NVNFQKAINEKLGQYASPTAKRCCQDGVTRLPMMRSCEQRAARVQQPDCREPFLSCCQFAESLRKKSRDKGQAGLQR					specifically bound

More lines, now with the values ahead:

# of unique peptides (BiP-Sepharose [1]; Sample 1B)	# of unique peptides (BiP-Sepharose [1]; Sample 3B)	# of unique peptides (BiP-Sepharose [1]; Sample 5B)	# of unique peptides (BiP-Sepharose [1]; Sample 2B)	Specific binding to BiP-Sepharose from normal pooled plasma (BiP-Sepharose [2])	Molecule
3					Apolipoprotein A-IV precursor (protein) EVSADQVATVMWDYFSQLSNNAKEAVEHLQKSELTQQLNALFQDKLGEVNTYAGDLQKKLVPFATELHERLAKDSEKLKEEIGKELEELRARLLPHANEVSQKIGDNLRELQQRLEPYADQLRTQVSTQAEQLRRQLTPYAQRMERVLRENADSLQASLRPHADELKAKIDQNVEELKGRLTPYADEFKVKIDQTVEELRRSLAPYAQDTQEKLNHQLEGLTFQMKKNAEELKARISASAEELRQRLAPLAEDVRGNLRGNTEGLQKSLAELGGHLDQQVEEFRRRVEPYGENFNKALVQQMEQLRQKLGPHAGDVEGHLSFLEKDLRDKVNSFFSTFKEKESQDKTLSLPELEQQQEQQQEQQQEQVQMLAPLES
2	1	1			CDNA FLJ14473 fis, clone MAMMA1001080, highly similar to Homo sapiens SNC73 protein (SNC73) mRNA, immunoglobulin heavy constant alpha 1 (protein, UniProt P01876 1-398, looked up) Immunoglobulin heavy constant …: ASPTSPKVFPLSLCSTQPDGNVVIACLVQGFFPQEPLSVTWSESGQGVTARNFPPSQDASGDLYTTSSQLTLPATQCLAGKSVTCHVKHYTNPSQDVTVPCPVPSTPPTPSPSTPPTPSPSCCHPRLSLHRPALEDLLLGSEANLTCTLTGLRDASGVTFTWTPSSGKSAVQGPPERDLCGCYSVSSVLPGCAEPWNHGKTFTCTAAYPESKTPLTATLSKSGNTFRPEVHLLPPPSEELALNELVTLTCLARGFSPKDVLVRWLQGSQELPREKYLTWASRQEPSQGTTTFAVTSILRVAAEDWKKGDTFSCMVGHEALPLAFTQKTIDRLADWQMPPPYVVLDLPQETLEEETPGANLWPTTITFLTLFLLSLFYSTALTVTSVRGPSGNREGPQY
1	2		1		FLJ00385 protein (Fragment), immunoglobulin heavy constant mu (protein) GSASAPTLFPLVSCENSPSDTSSVAVGCLAQDFLPDSITFSWKYKNNSDISSTRGFPSVLRGGKYAATSQVLLPSKDVMQGTDEHVVCKVQHPNGNKEKNVPLPVIAELPPKVSVFVPPRDGFFGNPRKSKLICQATGFSPRQIQVSWLREGKQVGSGVTTDQVQAEAKESGPTTYKVTSTLTIKESDWLGQSMFTCRVDHRGLTFQQNASSMCVPDQDTAIRVFAIPPSFASIFLTKSTKLTCLVTDLTTYDSVTISWTRQNGEAVKTHTNISESHPNATFSAVGEASICEDDWNSGERFTCTVTHTDLPSPLKQTISRPKGVALHRPDVYLLPPAREQLNLRESATITCLVTGFSPADVFVQWMQRGQPLSPEKYVTSAPMPEPQAPGRYFAHSILTVSEEEWNTGETYTCVVAHEALPNRVTERTVDKSTGKPTLYNVSLVMSDTAGTCY
2		1	1		Histidine-rich glycoprotein precursor (protein) VSPTDCSAVEPEAEKALDLINKRRRDGYLFQLLRIADAHLDRVENTTVYYLVLDVQESDCSVLSRKYWNDCEPPDSRRPSEIVIGQCKVIATRHSHESQDLRVIDFNCTTSSVSSALANTKDSPVLIDFFEDTERYRKQANKALEKYKEENDDFASFRVDRIERVARVRGGEGTGYFVDFSVRNCPRHHFPRHPNVFGFCRADLFYDVEALDLESPKNLVINCEVFDPQEHENINGVPPHLGHPFHWGGHERSSTTKPPFKPHGSRDHHHPHKPHEHGPPPPPDERDHSHGPPLPQGPPPLLPMSCSSCQHATFGTNGAQRHSHNNNSSDLHPHKHHSHEQHPHGHHPHAHHPHEHDTHRQHPHGHHPHGHHPHGHHPHGHHPHGHHPHCHDFQDYGPCDPPPHNQGHCCHGHGPPPGHLRRRGPGKGPRPFHCRQIGSVYRLPPLRKGEVLPLPEANFPSFPLPHHKHPLKPDNQPFPQSVSESCPGKFKSGFPQVSMFFTHTFPK
